According to the supplement of paper PMC9942255:

Each sequence was assayed on Bacillus subtilis DB104 (SP-AmyQ fusion secretion) (assay: AmyQ secretion efficiency, weighted average sort bin (1 = best secretion, 10 = worst) (bin number (weighted average, 1-10)); higher = lower secretion efficiency).
Outline: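 A B. subtilis DB104 library carrying amyE-integrated fusions of designed signal peptides to mature AmyQ was encapsulated at about 0.3 cells per ~65 nL alginate bead with fluorescein-starch and grown about 13 h at room temperature. Following nile red staining, occupied beads were flow-sorted as large particles into 10 equally populated bins by green/red fluorescence ratio, and the bin amplicons were Illumina-sequenced. The secretion score is the read-frequency-weighted average bin number normalised to beads per bin, leaving out low-abundance sequences.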
MKKKLAAGLTASAIVGTTLVDEPAEAATI gave an AmyQ secretion efficiency of 5.66.
Work on MKKKLAAGLTASAIVGTTLVVTPAEAADE yielded an AmyQ secretion efficiency of 3.03.
In the case of MGLGKKLSVAVAASFMSLSISLPGVQTAEG, the AmyQ secretion efficiency is reported as 3.78.
Sequence MKKRITYSFTMMLLALLAVVAFAFTDSSKAKAAEA has an AmyQ secretion efficiency of 1.93.
With MLKKIALTLCPAIVGSLLFFTAPASPHVS the AmyQ secretion efficiency was 8.85.
For MKRKRRKMACLILFSFTITTFINTETISAFSN, the AmyQ secretion efficiency was 2.31.
Work on MKMKSGMEQAVSVLLLLSRLPVQASLTSR yielded an AmyQ secretion efficiency of 6.52.
Work on MRGKSAVLLSLIMLIAGFLISFLFQM yielded an AmyQ secretion efficiency of 7.41.
In the case of MRSYIKVLTMCFLGLILFVVIATVSAIPTALADNS, the AmyQ secretion efficiency is reported as 2.02.
With MKRITIIITMFIAAAVISLTGTAEAAEK the AmyQ secretion efficiency was 2.84.
Sequence MKRMIVRMTLPLLIVCLAFSSFSASARNASE has an AmyQ secretion efficiency of 3.81.
Work on MKKLLAAGIIGLLTVSIASPSFYAEK yielded an AmyQ secretion efficiency of 7.71.
With MTMLRKIIGWILLLCIIPLFAFTVISSGKEV the AmyQ secretion efficiency was 6.13.
Work on MRPVFPLILSAVLFLSCFFGARQTETSASKR yielded an AmyQ secretion efficiency of 5.36.
Sequence MKWMCSICCAAVLLAGGAWQAEAV has an AmyQ secretion efficiency of 3.41.
MLSSKWMVGLLAGCLAAGGFSYNAFATEN showed an AmyQ secretion efficiency of 3.83.
In the case of MNKKYFVLIVCIIFTSALFPTFSSVTRAQG, the AmyQ secretion efficiency is reported as 1.05.
MKKRLIAPMLKRKKRRAFFAMSGSAQAAAY was tested, and the AmyQ secretion efficiency was 7.88.
Sequence MKLSVKRGTTLTVAAAAMTAKMYATAKGN has an AmyQ secretion efficiency of 7.06.
Work on MLKKKWMVGLLAGCLAAGGFSYNHFATEN yielded an AmyQ secretion efficiency of 6.62.
In the case of MKKGIIRTGRQSFVLFFALSTGITGVQAAPA, the AmyQ secretion efficiency is reported as 5.13.
MKKRRGRGSVLVPALIMSGITLIEANKK was tested, and the AmyQ secretion efficiency was 7.89.
MKKWIYVRRVLSIAGIGGFSVHAASS gave an AmyQ secretion efficiency of 7.43.
With MIAYFGKCLLLVTIMFLGVLFGMQQYNHG the AmyQ secretion efficiency was 6.5.
For MKKVLMAFIICLSLILQGGKGPPGGAKAESV, the AmyQ secretion efficiency was 5.23.
Sequence MKLAKRVSALTPSTTLAITAKFKEL has an AmyQ secretion efficiency of 7.68.
MKWMTNCSICCAAVLLAGGAAQAEAV gave an AmyQ secretion efficiency of 3.49.
MKKWLIIAVSLAIMYTKGEAKAAGM gave an AmyQ secretion efficiency of 2.92.
Sequence MKKCLLFLTTIALILSLSTNAFYKNT has an AmyQ secretion efficiency of 8.02.
With MKQIKKKRTSFMLLAMTGQTALAKDV the AmyQ secretion efficiency was 6.55.
In the case of MKKAFLVFLSVVLVTTVFLVKQQESVDQAKQL, the AmyQ secretion efficiency is reported as 5.67.
In the case of MKKGIIRFLLVSFVLFFALSTGITGVQHAPA, the AmyQ secretion efficiency is reported as 5.62.
Sequence MKWMCSICCAAVLLAGGAPTFAQAEAV has an AmyQ secretion efficiency of 3.68.
MKIRKILLSSALSFGMLISAVPCLAAGT was tested, and the AmyQ secretion efficiency was 2.
MKKKQVMLALTAAAGLGLTALGSAPAAKAAPL gave an AmyQ secretion efficiency of 2.2.
MTMLSMIIGWILLLCIIPLFAFTVIASGKEV gave an AmyQ secretion efficiency of 7.31.
In the case of MNFKKTVVSALSISALALRKRRKRASAHEI, the AmyQ secretion efficiency is reported as 7.78.
MGLGKKLSVAVAASFMSLSISLRKKVQAAEG was tested, and the AmyQ secretion efficiency was 8.03.
In the case of MKKAAAVLLSLGLVFFLLTSGFSYGAGHVAEAKTK, the AmyQ secretion efficiency is reported as 3.03.
Work on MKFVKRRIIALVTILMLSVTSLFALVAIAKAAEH yielded an AmyQ secretion efficiency of 4.46.
For MKKRFFGPIILAFILFAGLIAIPS, the AmyQ secretion efficiency was 5.16.
MKRMIVRMTLPLLIVCLAFSKDSASARAASE was tested, and the AmyQ secretion efficiency was 1.93.
Work on MNKFLKSNFRFKRAAALGISLLASSNFIKASND yielded an AmyQ secretion efficiency of 3.29.
MTTKYSKQSKQLLCFMPAAKIEHTQASLL showed an AmyQ secretion efficiency of 7.85.
Work on MKLAKRVSALTPSTTLAIISTGSAKAKEL yielded an AmyQ secretion efficiency of 7.54.
MKRLFMKARRKKKAVVFVFAVKGAPAKAETH was tested, and the AmyQ secretion efficiency was 8.85.
MLCVMMLLFSAIASFPVSIQAKDQ showed an AmyQ secretion efficiency of 6.18.
MKLKKRVSMFLVALTMCGGLFVTPCKAVKT gave an AmyQ secretion efficiency of 2.35.
MKKLLAAGIIGLLTVSIASPSFVAEK was tested, and the AmyQ secretion efficiency was 6.79.
MTMLRKIIGWILLLCIIPLFAFTVINSGKEV gave an AmyQ secretion efficiency of 6.45.
For MFKFKKNFLFLVGLSAALMSISLFSATASAAST, the AmyQ secretion efficiency was 1.42.
With MFNRLFRVCFLAALIMAFTLPNSVYEQKP the AmyQ secretion efficiency was 7.29.
MKKCRKSIKRFLVSLIIGTFVISVPFMANAQSD showed an AmyQ secretion efficiency of 1.76.
MPYLKRKYRLLVTGLFMSLFAVTATASAQTG gave an AmyQ secretion efficiency of 1.78.
In the case of MLKKIALTLCPAIVGSLLFFTAPESAHVS, the AmyQ secretion efficiency is reported as 5.94.
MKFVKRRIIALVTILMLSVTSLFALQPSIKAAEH was tested, and the AmyQ secretion efficiency was 3.57.
In the case of MRSYIKVLTMCFLGLILFVPTALPDNS, the AmyQ secretion efficiency is reported as 7.02.
MFNRLFRVCFLAALIMAFTLPNSVYSQKP gave an AmyQ secretion efficiency of 3.32.
MGRFLIGAGVAAVILSGWFIADHQTHSQEM gave an AmyQ secretion efficiency of 6.17.
MKKKLAAGLTASAIVGTTLVVTPPTAPGGAEAATI was tested, and the AmyQ secretion efficiency was 6.5.
Work on MLKKVRKRRKKLVGSTLGAFSFSSDASAKHV yielded an AmyQ secretion efficiency of 6.7.
Work on MLKKIALTLCPAIVGSLLFFTAPASEHVS yielded an AmyQ secretion efficiency of 6.03.
With MRPVFPLILSAVLFLSCFFGARQTEASMSKR the AmyQ secretion efficiency was 2.44.
MKFVKRRIIALVTILMLSVTSLFADEEEAKAAEH was tested, and the AmyQ secretion efficiency was 2.36.
MRKKCSSMSFTSVCLWILVLLLSCLSGKSAYAATS was tested, and the AmyQ secretion efficiency was 3.
Work on MKRLRRKRKKGIMLLTFAPSAFAKQD yielded an AmyQ secretion efficiency of 7.07.
MKKAAAVLLSLGLVFGFSYGAGHVAENKTK gave an AmyQ secretion efficiency of 4.78.
In the case of MKVPKTMLLSTAAGLLLSLTATSVSCHYV, the AmyQ secretion efficiency is reported as 5.45.
MRKKRVRKCKKAASLTLGSLLPAGYASAKED showed an AmyQ secretion efficiency of 7.62.
In the case of MLTKRLLTIYIMLLGLIAWFPGAAQAATP, the AmyQ secretion efficiency is reported as 2.42.
MTGLKMLSMLTVMIASLFIFSSQALAVQY showed an AmyQ secretion efficiency of 1.83.
Work on MNKKYFVLIVCIIFTSALFPTRRRVTAAQG yielded an AmyQ secretion efficiency of 3.61.
With MSKWMITIAMLILAGIALFVFISPLKSHKT the AmyQ secretion efficiency was 5.71.
For MTMKLKWLSFLLGFIILLFLFKYQFSNNDS, the AmyQ secretion efficiency was 7.21.
In the case of MKKIGLLFMLCLAALFTIGFPAQQADAAED, the AmyQ secretion efficiency is reported as 2.02.
With MKKIVSILFMFGLVMGFSQFQPSTVFAAKK the AmyQ secretion efficiency was 2.86.
Work on MKLWMRKTLVVLFTIVTFGLVSPPAAVMADKP yielded an AmyQ secretion efficiency of 2.79.
Sequence MRKKRVITCVMAASLTLGSLLPAGYASGKED has an AmyQ secretion efficiency of 3.86.
MPYLKRVLLLLVTGLFMSLFIFLIVISAVTATASAQTG showed an AmyQ secretion efficiency of 1.25.
With MLTKRLLTIYIMLLGLIAWFPGAAQAASK the AmyQ secretion efficiency was 1.8.
MSTIGLLFMLCLAALFTIGFPAQQADAAEA showed an AmyQ secretion efficiency of 2.8.
MKRLLSTLLIGIMLLTFAPSAFWKQD was tested, and the AmyQ secretion efficiency was 6.93.
With MGLGKKLSVAVAASFMSLSISLPGEQAAEG the AmyQ secretion efficiency was 3.68.
For MKKVLMAFIICLSLILSVLAAPPSGAKAAED, the AmyQ secretion efficiency was 3.24.
In the case of MKKIKKRKFMFGLVMGFSQFQPSTVFAADK, the AmyQ secretion efficiency is reported as 7.57.
In the case of MKNMSCKLVVSVTLFFSFLTIGPLGHAQNS, the AmyQ secretion efficiency is reported as 2.46.
Sequence MNKKYFVLIVCIIFTSALFPTFSSVTAAQR has an AmyQ secretion efficiency of 1.45.
For MGLGKKLSVAVAASFMSLSISLPGVQAAPR, the AmyQ secretion efficiency was 2.88.
With MKLSVKIAGVLTVAAAAMTAKMYQTAKGN the AmyQ secretion efficiency was 7.71.
For MTKKAWFLPLVCVLLISGWLAPAASASSQTT, the AmyQ secretion efficiency was 1.17.
MRKILALFVLSLGLLSFMVTPVSAASK gave an AmyQ secretion efficiency of 1.58.
MTMLRKIIGWILLLCIIDDEAFTVIASGKEV gave an AmyQ secretion efficiency of 5.2.
MNKLKRLSMLTVMIASVFIFSSHALAAQE gave an AmyQ secretion efficiency of 1.11.
For MKQFAITLSVLCALILLVPTLLVIPFQHNKEAPASV, the AmyQ secretion efficiency was 8.36.
